Laboratory results taken from patent US7670806B2, “ADP-ribosyl acceptor hydrolase 3 (ARH3) polypeptides and methods of use” (The United States of America as represented by the …, priority 2005, dated 2010).
“Also recorded” adds a separate entry of the source.

How the values were obtained:
[1] = Poly(ADP-ribose) hydrolysis (autoradiography, high resolution PAGE, HPLC); format: biochemical; conditions: [32P]poly(ADP-ribose) or poly(ADP-ribose)PARP; 37° C.; autoradiography / PAGE / HPLC
Description: Poly(ADP-ribose) hydrolysis by autoradiography. [^32P]poly(ADP-ribose)PARP (500 ng of PARP with poly(ADP-ribose) was incubated (37° C., 2 h) with 2 μM ARH in 25 μl of 50 mM potassium phosphate buffer, pH 7.5, with or without 10 mM MgCl2 and/or 5 mM DTT. Reactions were stopped by adding 6 μl of 5× Laemmli buffer. Samples (20 μl) of proteins were separated by SDS-PAGE in 4-20% gels and transferred to nitrocellulose membranes that were exposed to X-ray film (Kodak) for 10 h.
Hydrolysis of poly(ADP-ribose) by PARG and ARH3. Purified [^32P] poly(ADP-ribose) (5.5×10^5 cpm, ˜300 nM ADP-ribose) was incubated for the indicated time at 37° C. in 25 μl of 50 mM potassium phosphate, pH 7.5, containing 10 mM MgCl2 and 5 mM DTT with enzyme or other additions as indicated and terminated by addition of 25 μl of 2× electrophoresis buffer (Invitrogen). [^32P]AMP was generated by incubation (37° C., 3 h) of 10 μM [^32P] NAD (10 μCi/reaction) with pyrophosphatase (40 units/mg from SIGMA, 1 mg/ml) in 25 μl of 50 mM KPO4, pH 7.5, and 10 mM MgCl2. [^32P] ADP-ribose was generated in a 25 μl mixture containing 50 mM KPO4, pH 7.5, 25 μg of activated CTA, 10 μM [^32P] NAD (10 μCi/reaction), 10 mM MgCl2, and 5 mM DTT, which was incubated at 30° C. overnight. [^32P] phosphoribosyl-AMP was generated by incubation (37° C., 3 h) of [^32P]poly(ADP-ribose) (5.5×10^5 cpm, ˜300 nM ADP-ribose) with Crotalus adamanteus phosphodiesterase (10 mU/reaction), 25 μl of 50 mM KPO4, pH 7.5, 10 mM MgCl2, and 5 mM DTT. Identities of AMP and ADP-ribose standards were confirmed by HPLC on C18 and SAX columns respectively.
High resolution Polyacrylamide Gel Electrophoresis (PAGE). Polyacrylamide (20%) gels (20×20×0.15 cm) containing polyacrylamide and bis(acrylamide), in a ratio of 19:1, 100 mM Tris-borate, pH 8.3, 2 mM EDTA, 4.4 mM ammonium persulfate, and 3.4 mM TEMED with electrophoresis carried out for 2 h at 400V with 50 mM Tris-borate, pH 8.3, 1 mM EDTA, before application of samples (15 μl) were used for analysis of poly(ADP-ribose) degradation. Subsequent electrophoresis at 400V was stopped when bromophenol blue (BPB) had moved 9 cm from the origin. Gels were exposed to X-ray films (Kodak).
HPLC analysis. HPLC, Hewlett-Packard series 1100 equipped with a diode-array spectrophotometric detector set at 254 nm, was used for separation of reaction products. For anion exchange perfusion chromatography, Zorbax SAX column (4.6×250 mm; DuPont, Wilmington Del.) was washed with 20 mM potassium phosphate, pH 4.5, for 30 min, followed by a linear gradient of 0-1M NaCl in the same buffer for 10 min (30-40 min), then same buffer with 1M NaCl for 10 min (40-50 min) at a flow rate of 1 ml/min. Nicotinamide was eluted at 3 min, NAD at 10 min, and ADP-ribose at 40 min. For reverse phase, Discovery C18 column (4.6×250 mm; SUPELCO, Bellefonte Pa.) was used. Samples were separated isocratically with 100 mM potassium phosphate, pH 6.0 containing 7% methanol at a same flow rate of 1 ml/min. ADP-ribose was eluted at 6 min, NAD at 8 min, nicotinamide 9 min.
Poly(ADP-ribose)PARP was used as substrate to assay potential poly(ADP-ribose) hydrolase activities of recombinant ARH1, 2 or 3. Products were identified by autoradiography and HPLC. Fractions (1 ml) were collected for liquid scintillation counting to quantify [^14C]ADP-ribose, which was eluted in fractions from 34 min to 43 min. Because ARH1 activity may require both DTT and Mg^2+, depending on species (Takada et al. (1993) J. Biol. Chem. 268:17837-17843; Moss et al. (1992) J. Biol. Chem. 267:10481-10488), these reactions were performed with or without 10 mM MgCl2, and/or 5 mM DTT. […] Degradation of [^32P]poly(ADP-ribose) by ARH3 was enhanced by 10 mM MgCl2 (FIG. 4A). Data were similar with mouse ARH3.
Samples of [^14C] ADP-ribosylated PARP (250 ng, 15,000 cpm, ˜850 nM ADP-ribose) were incubated at 37° C. (total volume, 100 μl) with human ARH3 as indicated. […]

ADP-ribose binding assay = conditions: 1 μM ARH3, 3 μM [14C]ADP-ribose, 30° C., 16 h
Description: ADP-ribose binding assay. [^14C]ADP-ribose was generated by incubation overnight at 30° C. of 80 μM (10 μCi) [adenine-U-^14C]NAD with 50 μl of RT6.2 solution (5 nmol/h NADase activity; gift from Dr. Sunhee Park, NHLBI, National Institutes of Health, Bethesda, Md.) in 250 μl of 50 mM potassium phosphate, pH 7.5, and purified by HPLC using Zorbax Sax column as described above. [^14C]ADP-ribose, eluted at 40 min, was stored at −20° C.
To assess protein binding, 1 μM human wild type or D77N/D78N mutant ARH3 was incubated (30° C., 16 h) with 3 μM [^14C]ADP-ribose in 50 mM potassium phosphate buffer, pH 7.5, without or with 10 mM MgCl2, and/or 5 mM DTT (total volume 100 μl). A sample (90 μl) was applied to a column (0.5×4 cm) of Affi-Gel boronate (100 mg, Bio-Rad) which was equilibrated with 0.1 M glycine, pH 9.0, containing 0.1 M NaCl, with or without 10 mM MgCl2, and/or 5 mM DTT, and eluted with five 1-ml portions of the same solution. The total eluate, containing ARH with bound ADP-ribose was collected for liquid scintillation counting.
After incubation of wild-type or mutant ARH3 (1 μM) with [^14C]ADP-ribose (3 μM) (30° C., 16 h) without or with 10 mM MgCl2 and/or 5 mM DTT (total volume 100 μl), unbound ADP-ribose was removed by binding to Affi-gel boronate (Bio-Rad), and ARH3 with ADP-ribose bound, was collected for radioassay. […]

- [14C]ADP-ribose binding (ADP-ribose binding assay): similar
B1: ARH3 (D77N/D78N): human ARH3 mutant with dual amino acid replacement D77N/D78N (protein)
chain: MAAAAMAAAAGGGAGAARSLSRFRGCLAGALLGDCVGSFYEAHDTVDLTSVLRHVQSLEPDPGTPGSERTEALYYTNNTAMARALVQSLLAKEAFDEVDMAHRFAQEYKKDPDRGYGAGVVTVFKKLLNPKCRDVFEPARAQFNGKGSYGNGGAMRVAGISLAYSSVQDVQKFARLSAQLTHASSLGYNGAILQALAVHLALQGESSSEHFLKQLLGHMEDLEGDAQSVLDARELGMEERPYSSRLKKIGELLDQASVTREEVVSELGNGIAAFESVPTAIYCFLRCMEPDPEIPSAFNSLQRTLIYSISLGGDTDTIATMAGAIAGAYYGMDQVPESWQQSCEGYEETDILAQSLHRVFQKS
- Poly(ADP-ribose) hydrolysis (in words) [1]: inactive; also recorded: No activity
